Substitutions are numbered along the chain they refer to. Where two headings read alike, the source gives them in different places.
What was measured:
[1] = target: T1, SARS-CoV-2 spike protein expressed on Ramos-S cells (SARS-CoV-2, UniProt P0DTC2 14-1273); experiment: flow cytometry on Ramos-S cells
T1 construct: whole, on cells; also called S protein; Ramos cells expressing transfected spike protein

[2] = target: T2, FcγRIIIa V158 on NF-κB-RE nanoluciferase reporter cells (UniProt P08637 17-254); experiment: cell-based or functional assay
T2 sequence (P08637 17-254 F176V limits assumed): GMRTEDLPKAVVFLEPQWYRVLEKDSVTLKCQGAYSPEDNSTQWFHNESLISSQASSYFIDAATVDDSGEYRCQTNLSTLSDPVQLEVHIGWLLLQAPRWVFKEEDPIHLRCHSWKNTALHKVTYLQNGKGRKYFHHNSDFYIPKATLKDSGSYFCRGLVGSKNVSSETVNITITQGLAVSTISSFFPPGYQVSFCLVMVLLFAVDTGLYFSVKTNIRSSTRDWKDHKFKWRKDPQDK

[3] = target: T2, FcγRIIIa V158 on NF-κB-RE …; experiment: cell-based or functional assay; remark: listed apart in the source
[4] = target: human death receptor 5 (DR5) on cells (human, UniProt O14763 56-440); experiment: cell-based or functional assay
[5] = target: T3, dimeric rsFcγRIIa (H131 allelic form) (UniProt P12318 34-217); experiment: flow cytometry: Ramos-S cells opsonised with the ACE2-Fc protein, biotinylated dimeric rsFcγRIIa probe, streptavidin-APC
T3 construct: also called dimeric recombinant soluble FcγRIIa
T3 sequence: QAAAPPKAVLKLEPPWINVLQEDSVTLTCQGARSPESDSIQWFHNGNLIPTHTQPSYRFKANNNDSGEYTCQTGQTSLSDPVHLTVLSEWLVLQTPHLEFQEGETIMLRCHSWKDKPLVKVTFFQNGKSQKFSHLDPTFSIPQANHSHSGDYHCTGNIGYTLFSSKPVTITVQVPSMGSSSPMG

B1: CC40.8-WT (antibody)
heavy: not shown
light: SYELTQPPSVSVSPGQTARITCSGDALPKRYAYWYQQKSGQAPILVIYEDKKRPSGIPERLSGSKSGTVATLTISGAQVEDEADYYCYSTDSSGNHAVFGGGTQLTVLGQPKAAPSVFIFPPSDEQLKSGTASVVCLLNNFYPREAKVQWKVDNALQSGNSQESVTEQDSKDSTYSLSSTLTLSKADYEKHKVYACEVTHQGLSSPVTKSFNRGEC
[1]
  binding result: binds

B2: rituximab-WT (antibody, human IgG1, kappa)
heavy: not shown
light: QIVLSQSPAILSASPGEKVTMTCRASSSVSYIHWFQQKPGSSPKPWIYATSNLASGVPVRFSGSGSGTSYSLTISRVEAEDAATYYCQQWTSNPPTFGGGTKVEIKRTVAAPSVFIFPPSDEQLKSGTASVVCLLNNFYPREAKVQWKVDNALQSGNSQESVTEQDSKDSTYSLSSTLTLSKADYEKHKVYACEVTHQGLSSPVTKSFNRGEC
[2]
  EC50 (read off the curve), FcγRIIIa reporter activation: ~30 pM
[3]
  EC50 (read off the curve), FcγRIIIa reporter activation: ~40 pM

B3: TDR5-A2WT (antibody)
heavy: QVQLVQSGAEVKKPGASVKVSCKASGFNIKDTHMHWVRQAPGQRLEWIGRIDPANGNTEYDQKFQGRVTITVDTSASTAYMELSSLRSEDTAVYYCARWGTNVYFAYWGQGTLVTVSSASPTSPKVFPLSLDSTPQDGNVVVACLVQGFFPQEPLSVTWSESGQNVTARNFPPSQDASGDLYTTSSQLTLPATQCPDGKSVTCHVKHYTNPSQDVTVPCPVPPPPPCCHPRLSLHRPALEDLLLGSEANLTCTLTGLRDASGATFTWTPSSGKSAVQGPPERDLCGCYSVSSVLPGCAQPWNHGETFTCTAAHPELKTPLTANITKSGNTFRPEVHLLPPPSEELALNELVTLTCLARGFSPKDVLVRWLQGSQELPREKYLTWASRQEPSQGTTTFAVTSILRVAAEDWKKGDTFSCMVGHEALPLAFTQKTIDRLAG
light: DIQLTQSPSSLSASVGDRVTITCSASSSVSYMYWYQQKPGKAPKPWIYRTSNLASGVPSRFSGSGSGTDFTLTISSLQPEDFATYYCQQYHSYPPTFGGGTKVEIKRTVAAPSVFIFPPSDEQLKSGTASVVCLLNNFYPREAKVQWKVDNALQSGNSQESVTEQDSKDSTYSLSSTLTLSKADYEKHKVYACEVTHQGLSSPVTKSFNRGEC
[4]
  death of Colo205 cells, EC50 as dilution of culture supernatant: ~0.167 dilution

B4: TDR5-A2HF (antibody)
heavy: B3 heavy with H422F
light: B3 light
[4]
  death of Colo205 cells, EC50 as dilution of culture supernatant: > 0.00195 dilution

B5: EflACE2-Fc-H429Y (Fc fusion)
chain: ETGSTIEEQAKYFLDKFNHEAEDLFYQSSLASWNYNTNITEENVQNMNNAGDKWSAFLKEQSTTAQMYPLQEIQNLTVKLQLQALQQNGSSVLSEDKSKRLNTILNTMSTIYSTGKVCNPDNPQECLLLEPGLNEIMANSLDYNERLWAWESWRSEVGKQLRPLYEEYVVLKNEMARANHYEDYGDYWRGDYEVNGVDGYDYSRGQLIEDVEHTFEEIKPLYEHLHAYVRAKLMNAYPSYISPIGCLPAHLLGDMWGRFWTNLYSLTVPFGQKPNIDVTDAMVDQAWDAQRIFKEAEKFFVSVGLPNMTQGFWEYSMLTDPGNVQKAVCHPTAWDLGKGDFRILMCTKVTMDDFLTAHHEMGHIQYDMAYAAQPFLLRNGANEGFHEAVGEIMSLSAATPKHLKSIGLLSPDFQEDNETEINFLLKQALTIVGTLPFTYMLEKWRWMVFKGEIPKDQWMKKWWEMKREIVGVVEPVPHDETYCDPASLFHVSNDYSFIRYYTRTLYQFQFQEALCQAAKHEGPLHKCDISNSTEAGQKLFNMLRLGKSEPWTLALENVVGAKNMNVRPLLNYFEPLFTWLKDQNKNSFVGWSTDWSPYADQSIKVRISLKSALGDRAYEWNDNEMYLFRSSVAYAMRQYFLKVKNQMILFGEEDVRVANLKPRISFNFFVTAPKNVSDIIPRTEVEKAIRMSRSRINDAFRLNDNSLEFLGIQPTLGPPNQPPVSGGGGSTHTCPPCPAPELLGGPSVFLFPPKPKDTLMISRTPEVTCVVVDVSHEDPEVKFNWYVDGVEVHNAKTKPREEQYNSTYRVVSVLTVLHQDWLNGKEYKCKVSNKALPAPIEKTISKAKGQPREPQVYTLPPSREEMTKNQVSLTCLVKGFYPSDIAVEWESNGQPENNYKTTPPVLDSDGSFFLYSKLTVDKSRWQQGNVFSCSVMYEALHNHYTQKSLSLSPGK
notes: also called EflACE2-Fc-H429Yoli; Yoli
[5]
  binding result: no binding (tested: 5 µg/ml (opsonising protein))

From US20260158160A1 (MACFARLANE BURNET INSTITUTE FOR MEDICAL RESEARCH AND PUBLIC …, published 2026)
